In patent US20200283491A1:

Columns and labels:
Test in all cases: cell-based or functional assay
[1] = molecular target: human Y1 receptor (human) (UniProt P25929)
[2] = molecular target: rhesus monkey Y2 receptor (rhesus monkey) (UniProt Q9GK74)
[3] = molecular target: rat Y2 receptor (rat) (UniProt Q9ERC0)
[4] = molecular target: mouse Y2 receptor (mouse) (UniProt P97295)
Chain of mouse Y2 receptor (mouse) (P97295 whole entry): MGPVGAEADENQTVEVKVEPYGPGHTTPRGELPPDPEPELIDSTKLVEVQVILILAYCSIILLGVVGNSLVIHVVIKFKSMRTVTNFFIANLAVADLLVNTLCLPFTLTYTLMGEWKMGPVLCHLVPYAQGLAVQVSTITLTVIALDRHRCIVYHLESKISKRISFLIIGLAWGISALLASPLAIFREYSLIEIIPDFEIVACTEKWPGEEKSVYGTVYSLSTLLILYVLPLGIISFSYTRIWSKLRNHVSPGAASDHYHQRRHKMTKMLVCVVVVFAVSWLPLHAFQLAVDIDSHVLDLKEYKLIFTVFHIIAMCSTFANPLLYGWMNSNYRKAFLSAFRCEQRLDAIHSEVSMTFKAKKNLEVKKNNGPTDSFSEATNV

Chain of rhesus monkey Y2 receptor (rhesus monkey) (Q9GK74 whole entry): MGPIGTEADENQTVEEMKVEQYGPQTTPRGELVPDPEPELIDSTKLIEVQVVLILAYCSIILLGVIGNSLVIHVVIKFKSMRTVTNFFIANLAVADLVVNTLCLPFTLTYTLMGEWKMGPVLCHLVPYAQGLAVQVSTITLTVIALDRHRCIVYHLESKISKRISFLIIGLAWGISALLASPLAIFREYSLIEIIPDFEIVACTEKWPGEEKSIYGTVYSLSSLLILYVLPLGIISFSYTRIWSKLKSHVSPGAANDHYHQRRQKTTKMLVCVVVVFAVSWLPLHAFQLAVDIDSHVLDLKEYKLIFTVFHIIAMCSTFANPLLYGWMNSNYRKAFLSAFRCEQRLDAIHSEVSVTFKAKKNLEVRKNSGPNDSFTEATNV
Chain of human Y1 receptor (human) (P25929 whole entry): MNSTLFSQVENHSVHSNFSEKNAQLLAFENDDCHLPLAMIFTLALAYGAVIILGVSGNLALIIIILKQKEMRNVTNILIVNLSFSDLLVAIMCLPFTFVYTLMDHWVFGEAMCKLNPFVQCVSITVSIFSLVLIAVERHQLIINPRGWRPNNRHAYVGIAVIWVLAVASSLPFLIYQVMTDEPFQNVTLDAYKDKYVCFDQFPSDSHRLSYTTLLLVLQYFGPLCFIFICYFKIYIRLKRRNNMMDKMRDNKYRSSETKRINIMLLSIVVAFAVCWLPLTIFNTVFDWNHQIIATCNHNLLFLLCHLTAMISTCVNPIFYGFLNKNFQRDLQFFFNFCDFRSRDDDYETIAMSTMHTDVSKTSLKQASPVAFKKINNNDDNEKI
Chain of rat Y2 receptor (rat) (Q9ERC0 entry or part of it): as the sequence (P97295 whole entry) above, with V4L, P20L, P23S, H25P, I52V, R163Q, I175V, R247K, M266T, P371L counted along it

- Human isoform potency (EC50 nM), cAMP assay [1]: 66.4 nM
- Cross-species potency (EC50 nM), cAMP assay [2]: 0.06 nM
- Cross-species potency (EC50 nM), cAMP assay [3]: 0.5 nM
- Cross-species potency (EC50 nM), cAMP assay [4]: 0.03 nM
Substance: PYY3-36 (from UniProt P10082 31-64) (peptide)
